Measured values: the supplement of paper PMC10567573

B1: CDC25A (parent)
chain: KPIVPTDGKRVIVVFHCEFSSERG

Variants of: B1
Experiment: protein stability index of a GFP-peptide fusion (GPS, HEK-293T) (PSI 1-6); higher = more stable
Details: c terminus: a fixed tail appended
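Further: lentivirally expressed fusions sorted by FACS into six bins by GFP to DsRed ratio, PSI derived from sequencing read proportions per bin multiplied by bin number.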

Protein stability index of substitutions, site by site:
T6: L 1.92, A 1.44, D 1.8, Y 2.19, M 2.11, P 1.95, Q 3.58, H 2.71, C 2.64, K 1.83, F 2.46, R 2.27, E 1.82, W 3.34, V 1.61, G 1.97, S 1.86, N 2.28, I 2.31
D7: S 1.84, W 4.57, M 2.53, P 3.14, A 2.21, N 2.48, T 3.31, L 3.2, R 2, V 2.3, Q 2.76, E 2.8, F 2.17, H 3.21, K 1.8
R10: L 3.23, N 2.39, C 3.54, I 1.45, G 2.54, V 2.76, A 1.93, T 2.54, E 2.96, F 2.43, P 3.09, S 2.33, K 2.51, W 4.02, M 2.6, Q 2.14, D 1.77, Y 2.95
P5: A 2.63, R 1.84, N 4.39, S 2.29, I 2.42, L 2.4, G 1.69, F 2.19, V 2.29, K 2.13, Y 2.66, M 2.45, E 2.33, W 3.01, D 1.33, Q 2.27, H 1.5, T 1.55, C 4.79
G8: W 2.51, M 3.53, E 2.13, V 5.1, A 2.26, F 2.28, Y 2.16, I 2.89, T 2.3, D 1.33, P 1.52, H 3.19, N 1.95, Q 1.51, R 2.3, C 1.88, L 3.42, K 1.82
V13: C 1.79, E 3.43, D 3.69, A 2.28
V4: C 2.14, M 1.92, Q 2.44, G 2.33, Y 2.58, K 2.11, N 3.39, D 2.51, P 2.75, T 1.42, I 2.57, W 2.32, F 2.24, S 2.49, E 1.48, H 2.17, R 3.53, L 2.33, A 2.12
I3: W 4.26
I12: K 3.13, L 3.39, C 2.1, Q 2, A 2.11, W 2.49, V 1.63, E 2.84, T 2, F 3.2, S 1.82, D 3.47, R 1.94, P 3.39, M 2.24, N 2.99, G 3.13, H 1.83
K9: A 1.56, N 2.31, G 2.86, C 2.67, F 2.2, P 1.94, H 2.19, V 2.77, Q 3.32, M 2.36, L 2.69, R 2.92, W 2.4, T 2.66, E 2.58, S 2.4, D 2.19
V11: A 1.93, Q 2.25, S 2.35, H 1.58, N 2.14, P 2.31, L 2.82, M 2.06, Y 2.59, K 2.51, R 1.68, E 3.05, D 2.65, T 1.76, G 2.21, W 3.24, I 3.01, F 2.11, C 1.57
